± gives the standard deviation of the averaged measurements.
tested on: Saccharomyces cerevisiae; experiment: protein stability index of tFT-peptide fusion (C-terminal peptide) (PSI (0-1 scale)); higher = more stable (slower turnover); conditions: genetic background: wild type; temperature: 30 C
Experimental: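 Multiplexed protein stability (MPS) profiling in S. cerevisiae. Random 12-aa peptides (tFT-X12 library) are fused to the C-terminus of a sfGFP-mCherry tandem fluorescent timer, after mCherry and a GGGS linker. Cells are FACS-sorted into 8 mCherry/sfGFP bins and deep-sequenced. The protein stability index (PSI) is the read-weighted bin average, scaled from 0 (unstable) to 1 (stable). Only peptides with >10 reads are reported; cells were grown at 30 °C in SC-His with glucose.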
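Also: PSI is a weighted mean of sequencing reads over stability bins, variants kept only with over 10 reads, mCherry proximal and sfGFP distal, peptide attached via GGGS linker.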

Row | Sequence | protein stability index
1 | GGWWSCAWGVRG | 0.627 ± 0.065
2 | GHEKAGPSIGFL | 0.644 ± 0.027
3 | GHFWVFGIPFFR | 0.6547 ± 0.0017
4 | GHVCNSIVPFRV | 0.624 ± 0.022
5 | GHVPIWPFLSLS | 0.6664 ± 0.0042
6 | GIASKCFWFVCG | 0.645 ± 0.018
7 | GICDAVLFTMLV | 0.682 ± 0.068
8 | GIKQEMKYQVGK | 0.665 ± 0.07
9 | GILRGSKKVDPP | 0.622 ± 0.029
10 | GILYFPAGHHAG | 0.627 ± 0.035
11 | GIPWSVLLSSYW | 0.713 ± 0.033
12 | GIQAGGGGGKGG | 0.676 ± 0.022
13 | GIQIRIDNQKKN | 0.67 ± 0.025
14 | GIVFVFGGGLAL | 0.702 ± 0.078
15 | GIVVTCLRSRWD | 0.647 ± 0.013
16 | GKADRRKSEHVR | 0.733 ± 0.047
17 | GKCFSFSFNCLH | 0.521 ± 0.023
18 | GKFVEVVRFWSV | 0.721 ± 0.074
19 | GKGREGVGEVGK | 0.6753 ± 0.0043
20 | GKGRIWTGRKGC | 0.68 ± 0.098
21 | GKGYVFRTLSHL | 0.732 ± 0.082
22 | GKIGAIRVVGWA | 0.662 ± 0.02
23 | GKLLPCVRGRGL | 0.665 ± 0.024
24 | GKNGKNMDKDNK | 0.676 ± 0.019
25 | GKNRKKEEHAKR | 0.702 ± 0.12

Row | Sequence | protein stability index
26 | GKRGKKVKKKSK | 0.621 ± 0.016
27 | GKRKEAVLRMMI | 0.6213 ± 0.0017
28 | GKSLIKRYANKI | 0.7436 ± 0.0019
29 | GKSREKEKESRE | 0.658 ± 0.032
30 | GKTNKALDRISI | 0.679 ± 0.038
31 | GKYKKGNSIAIE | 0.598 ± 0.012
32 | GLAPYRPVITFS | 0.675 ± 0.002
33 | GLCGVVFGGRGE | 0.657 ± 0.064
34 | GLCPCGDAISTR | 0.682 ± 0.053
35 | GLEGSVRRVRGS | 0.701 ± 0.011
36 | GLESVGRVSLRG | 0.657 ± 0.0094
37 | GLFFISLFFPFL | 0.575 ± 0.0096
38 | GLFVSLRGLSLS | 0.71 ± 0.044
39 | GLGRRRGVGGVR | 0.709 ± 0.0027
40 | GLGVCGTGIGGV | 0.656 ± 0.014
41 | GLIVGLLGVSGF | 0.591 ± 0.0062
42 | GLKTLQTCRIIR | 0.691 ± 0.054
43 | GLLENLKKRSRG | 0.691 ± 0.07
44 | GLLRGHVFVGRG | 0.692 ± 0.029
45 | GLLSLPPRLPFL | 0.672 ± 0.073
46 | GLLTFPPNRSGG | 0.67 ± 0.05
47 | GLMRDKEMRMPK | 0.68 ± 0.036
48 | GLNVLVWALLSQ | 0.548 ± 0.032
49 | GLPCLSPPLAPS | 0.683 ± 0.034
50 | GLPRCMDWSIRR | 0.6764 ± 0.00099

Row | Sequence | protein stability index
51 | GLPTPSNVPPFG | 0.703 ± 0.01
52 | GLRQVPGDLAEG | 0.699 ± 0.039
53 | GLSGVVGSRCHC | 0.713 ± 0.02
54 | GLSLFPVTFFLR | 0.585 ± 0.02
55 | GLSPDFRFMGVR | 0.667 ± 0.029
56 | GLSSLVLRFFLP | 0.663 ± 0.025
57 | GLSTPPSPALLR | 0.748 ± 0.013
58 | GLTWFRQARAAL | 0.718 ± 0.039
59 | GLVDARRRWCFS | 0.62 ± 0.0073
60 | GLVHGSWGCQCD | 0.714 ± 0.015
61 | GLVRGGGGTVGG | 0.81 ± 0.22
62 | GLVSSDVGFRGY | 0.73 ± 0.019
63 | GLYHGFCLSGCL | 0.678 ± 0.04
64 | GMGLWCLSGLFP | 0.7131 ± 0.0067
65 | GMKDKSVRTIKK | 0.721 ± 0.0035
66 | GMLGVGGYGGLW | 0.717 ± 0.078
67 | GNAKKRKNKEKK | 0.651 ± 0.09
68 | GNCVESCMWQRE | 0.704 ± 0.05
69 | GNKAPHTRTIGG | 0.706 ± 0.028
70 | GPALCPVWATYG | 0.591 ± 0.0086
71 | GPGGGGGLWVRV | 0.617 ± 0.016
72 | GPGTSSSGLVFT | 0.692 ± 0.029
73 | GPKTFIRSTKEI | 0.697 ± 0.03
74 | GPPLSPPLLLLL | 0.681 ± 0.046
75 | GPPPLPSPPSHP | 0.753 ± 0.1

Row | Sequence | protein stability index
76 | GPPPPPRPPLPP | 0.665 ± 0.049
77 | GPPTASPLVAPA | 0.621 ± 0.02
78 | GPRGWRASVWAG | 0.687 ± 0.07
79 | GPRVFKPRTTHG | 0.663 ± 0.025
80 | GPSFVVTVGNGG | 0.686 ± 0.02
81 | GPSVPPLPRHEL | 0.728 ± 0.051
82 | GPSVRSTARGPG | 0.724 ± 0.12
83 | GPVCVVSGVFTV | 0.665 ± 0.072
84 | GPYDLPCLPLSA | 0.633 ± 0.014
85 | GQAGGRVEVREP | 0.6887 ± 0.005
86 | GQCQERRKGGCA | 0.577 ± 0.0063
87 | GQCRFVEDVYVT | 0.685 ± 0.009
88 | GQMYTLATSAVV | 0.602 ± 0.076
89 | GQRRDSSSEVWG | 0.67 ± 0.017
90 | GQRWADGGFVEV | 0.783 ± 0.1
91 | GQVTAHFRLARV | 0.697 ± 0.049
92 | GRAGGDGVGGGV | 0.6382 ± 0.0024
93 | GRCHRFQWSVRR | 0.681 ± 0.015
94 | GRDKGNLQSLRR | 0.732 ± 0.014
95 | GRGGLGGWEWDR | 0.712 ± 0.034
96 | GRGGLGWWEWDR | 0.7462 ± 0.0067
97 | GRGGVGWGEWDR | 0.729 ± 0.056
98 | GRGGWVHRRIGA | 0.676 ± 0.035
99 | GRGKKRKERAER | 0.649 ± 0.045
100 | GRGRWRGGVAVE | 0.802 ± 0.13

Row | Sequence | protein stability index
101 | GRGRWRSVYLRG | 0.622 ± 0.0078
102 | GRGVWEFGGGGG | 0.666 ± 0.056
103 | GRIPELVWWLDD | 0.76 ± 0.037
104 | GRIVPSFQGSPQ | 0.723 ± 0.093
105 | GRKGGEGERERT | 0.6715 ± 0.0049
106 | GRKRWVRLSLAC | 0.563 ± 0.028
107 | GRKVPQRRQSAR | 0.749 ± 0.015
108 | GRLGSTRRPPSG | 0.701 ± 0.0095
109 | GRLIERCSLRMT | 0.68 ± 0.055
110 | GRLKSTSTIRRF | 0.722 ± 0.021
111 | GRLLCFLFCCSS | 0.603 ± 0.035
112 | GRLRGGGPVAAR | 0.692 ± 0.053
113 | GRLRNVSLLSFC | 0.662 ± 0.011
114 | GRPHRYWRVVPY | 0.68 ± 0.036
115 | GRPKGGGIGEAG | 0.6928 ± 0.00079
116 | GRPKNSYNQNSG | 0.747 ± 0.013
117 | GRPLRAPPPPSP | 0.65 ± 0.043
118 | GRPYEHVVDPWR | 0.733 ± 0.029
119 | GRRFCYQASAGQ | 0.642 ± 0.0093
120 | GRRGCSGGLKGL | 0.675 ± 0.039
121 | GRRGGGTGAPSR | 0.65 ± 0.05
122 | GRRVVRGWLVRR | 0.683 ± 0.095
123 | GRRWGGERVREG | 0.66 ± 0.015
124 | GRRWPVPGGVSA | 0.693 ± 0.09
125 | GRSPMGDGGFFS | 0.7284 ± 0.0034

Row | Sequence | protein stability index
126 | GRTKFIPTPSTY | 0.712 ± 0.023
127 | GRVQARGRPGLD | 0.632 ± 0.045
128 | GRWGRGGASVVT | 0.649 ± 0.029
129 | GSACSLCGLYFN | 0.709 ± 0.073
130 | GSCVVRKFGKRS | 0.681 ± 0.016
131 | GSDDLVSVSSAE | 0.708 ± 0.028
132 | GSDEVGTGWGRL | 0.669 ± 0.13
133 | GSFFFFLAPSYF | 0.636 ± 0.014
134 | GSGAQVERCRWE | 0.719 ± 0.02
135 | GSGGLRVVCLLM | 0.653 ± 0.027
136 | GSGRNMHLRGSL | 0.65 ± 0.019
137 | GSGTGRWPGYGS | 0.718 ± 0.088
138 | GSILPSGFLSFA | 0.7472 ± 0.003
139 | GSLGTTTILRKT | 0.67 ± 0.064
140 | GSLLSEERGRYW | 0.75 ± 0.026
141 | GSNKWATANKYG | 0.6561 ± 0.0033
142 | GSPLASSPSVID | 0.704 ± 0.041
143 | GSPPSPPLPPPP | 0.674 ± 0.023
144 | GSPTSAPLSPPP | 0.686 ± 0.0038
145 | GSQSPKEEYHES | 0.632 ± 0.045
146 | GSRAECWEVGGV | 0.6742 ± 0.004
147 | GSRPVSAGCAYS | 0.655 ± 0.038
148 | GSSGGVWPDLNY | 0.701 ± 0.012
149 | GSSGQPDSPPIS | 0.684 ± 0.015
150 | GSSLRRLPASCD | 0.676 ± 0.066

Row | Sequence | protein stability index
151 | GSSQGCLICSIA | 0.649 ± 0.049
152 | GSTNNHEVTENI | 0.688 ± 0.013
153 | GSTRHFMSEKRE | 0.743 ± 0.079
154 | GSTSSSFPVSIR | 0.727 ± 0.045
155 | GSVGFPDRLLCL | 0.73 ± 0.033
156 | GSVLPPPAPPPL | 0.674 ± 0.021
157 | GSVSWVLMWSWG | 0.623 ± 0.059
158 | GSWAVQEHMLLE | 0.728 ± 0.065
159 | GSWGEGGVAVGG | 0.653 ± 0.032
160 | GSWRVLVLLGEL | 0.636 ± 0.029
161 | GTCGDRGRGGER | 0.559 ± 0.023
162 | GTDRRGRDAPHS | 0.586 ± 0.031
163 | GTEYDENSGTNE | 0.642 ± 0.011
164 | GTGDGRHRCRWN | 0.6655 ± 0.006
165 | GTGGRMIRWGLG | 0.667 ± 0.061
166 | GTGQSRAEGARP | 0.672 ± 0.015
167 | GTLPLGVRGGLK | 0.657 ± 0.081
168 | GTQTITAQRAAA | 0.643 ± 0.015
169 | GTRGGGGWSCES | 0.701 ± 0.06
170 | GTRRIDSKDICP | 0.742 ± 0.04
171 | GTRVGRARGGRK | 0.835 ± 0.047
172 | GTSDPRGSGPAG | 0.715 ± 0.015
173 | GTVGTGFGGGVE | 0.677 ± 0.12
174 | GTVTVLVGVHWE | 0.539 ± 0.008
175 | GTWEGDTSACAR | 0.636 ± 0.047

Row | Sequence | protein stability index
176 | GVAEGRKVGAST | 0.654 ± 0.036
177 | GVAKRGREGCWS | 0.569 ± 0.065
178 | GVAVVSGREGRG | 0.7809 ± 0.0063
179 | GVCGRWWTCMGV | 0.722 ± 0.061
180 | GVCRGSRVGLVP | 0.714 ± 0.025
181 | GVCRVAVGGGAT | 0.713 ± 0.033
182 | GVCSRAVGSGSF | 0.715 ± 0.067
183 | GVDGGGKWRGWG | 0.651 ± 0.06
184 | GVFASWAWFGVG | 0.71 ± 0.046
185 | GVFGFGARLCIG | 0.6782 ± 0.0043
186 | GVFGLMVGWGWA | 0.665 ± 0.083
187 | GVFGWAGCGVVL | 0.7188 ± 0.0043
188 | GVGGFGFGWSMV | 0.725 ± 0.057
189 | GVGGGRRGGGGG | 0.6409 ± 0.0036
190 | GVGLDSMCVEGF | 0.723 ± 0.1
191 | GVGLLAHLLIYR | 0.556 ± 0.0086
192 | GVGREGEIGGGG | 0.544 ± 0.037
193 | GVGRVGLACFVV | 0.542 ± 0.029
194 | GVGWRGGCEGGV | 0.711 ± 0.062
195 | GVIRGNRLELIV | 0.618 ± 0.025
196 | GVKMVHERHNRV | 0.665 ± 0.057

From the supplement of paper PMC10724198
